Measured values taken from the Human Domainome abundance scans (Beltran et al. 2025).
± gives the uncertainty stated by the source.

B1: Androgen receptor, residues 557 to 632; numbered along this chain, P10275 (parent)
chain: QKTCLICGDEASGCHYGALTCGSCKVFFKRAAEGKQKYLCASRNDCTIDKFRRKNCPSCRLRKCYEAGMTLGARKL

Variants of: B1
Assay: abundance fitness (aPCA) (normalised: wild type 0, dead -1); higher = more abundant; growth selection in yeast, the domain comes from the species named
Details: Homo sapiens

Variant | abundance fitness
C46I | -0.784 ± 0.13
C46Q | -0.8 ± 0.1
C7N | -0.212 ± 0.14
A73P | -0.44 ± 0.15
A73I | -0.101 ± 0.14
K29L | -0.331 ± 0.086
Y65D | -0.17 ± 0.17
Y65K | -0.178 ± 0.11
Y65A | -0.158 ± 0.085
C40I | -0.948 ± 0.39
A18P | -0.26 ± 0.052
A18I | 0.124 ± 0.16
A18Q | -0.223 ± 0.045
A18G | -0.335 ± 0.033
A18W | -1.07 ± 0.12
K37V | -0.058 ± 0.046
K37I | -0.091 ± 0.15
K37D | -0.009 ± 0.1
K37H | 0.168 ± 0.12
K37L | -0.126 ± 0.055
L5A | -0.109 ± 0.052
L5G | -0.189 ± 0.041
L5C | -0.07 ± 0.078
K50N | 0.087 ± 0.34

Variant | abundance fitness
K50D | -0.403 ± 0.35
G8V | -0.868 ± 0.26
G8E | -0.045 ± 0.075
G8K | -0.111 ± 0.076
G8S | -0.165 ± 0.078
S12F | -0.389 ± 0.23
S12D | -0.031 ± 0.075
S58R | -0.09 ± 0.059
S58A | -0.035 ± 0.068
G72Q | 0.089 ± 0.13
G72R | -0.009 ± 0.069
Y16V | -0.609 ± 0.044
Y16Q | -0.487 ± 0.074
Y16W | -0.122 ± 0.034
P57R | -0.1 ± 0.057
P57C | 0.088 ± 0.062
P57L | -0.075 ± 0.063
P57A | -0.011 ± 0.06
G13L | -0.115 ± 0.064
G13T | -0.057 ± 0.094
G13K | -0.229 ± 0.088
L19A | -0.063 ± 0.049
L19M | -0.03 ± 0.075
L19Q | 0.059 ± 0.11

Variant | abundance fitness
V26G | -0.001 ± 0.046
T47W | -0.244 ± 0.039
T47Q | -0.075 ± 0.047
T47M | -0.086 ± 0.086
N55A | 0.089 ± 0.096
I6S | -0.617 ± 0.16
I6K | -1.05 ± 0.28
I6L | -0.789 ± 0.19
I6A | -0.427 ± 0.12
H15R | -0.221 ± 0.063
H15G | -0.151 ± 0.054
H15A | -0.151 ± 0.078
K25N | 0.014 ± 0.032
K25D | -0.025 ± 0.03
D49S | -0.139 ± 0.063
D49F | -0.613 ± 0.17
L71D | -0.185 ± 0.15
L71W | -0.151 ± 0.11
L71R | -0.25 ± 0.066
L71A | -0.142 ± 0.095
L71Y | -0.043 ± 0.065
R30W | -0.114 ± 0.17
R30L | 0.099 ± 0.053
R30I | -0.067 ± 0.058

Variant | abundance fitness
R30T | 0.01 ± 0.065
R30Q | -0.029 ± 0.089
Q36K | 0.013 ± 0.08
Q36W | -0.251 ± 0.065
L39W | -0.064 ± 0.044
L39S | -0.128 ± 0.031
L39K | 0.094 ± 0.036
L39R | -0.006 ± 0.028
A32C | -0.023 ± 0.054
A32P | -0.591 ± 0.13
A32D | 0.007 ± 0.097
R74T | 0.088 ± 0.092
R74I | -0.317 ± 0.13
R74E | 0.066 ± 0.1
R74P | 0.13 ± 0.1
F27G | -0.884 ± 0.065
F27L | -0.766 ± 0.058
F27M | -1.01 ± 0.14
F27E | -0.73 ± 0.07
F27C | -0.833 ± 0.092
F27T | -0.91 ± 0.07
I48F | -0.226 ± 0.042
I48M | -0.154 ± 0.058
I48Y | -0.177 ± 0.043

Variant | abundance fitness
I48L | -0.204 ± 0.033
I48E | -0.348 ± 0.05
C21G | -0.976 ± 0.099
C21M | -0.953 ± 0.12
C21Q | -0.564 ± 0.13
C21R | -0.895 ± 0.1
C21P | -1.21 ± 0.21
C21D | -1.23 ± 0.32
N44G | 0.026 ± 0.039
N44M | -0.083 ± 0.062
N44C | -0.419 ± 0.15
N44H | -0.229 ± 0.13
N44D | -0.002 ± 0.091
S23Y | -0.122 ± 0.057
S23L | -0.283 ± 0.035
S23H | -0.036 ± 0.077
S23I | -0.836 ± 0.36
S23T | -0.233 ± 0.041
S23G | -0.054 ± 0.029
S23W | -0.137 ± 0.041
A41P | -0.12 ± 0.09
A41G | -0.091 ± 0.075
A41I | -0.275 ± 0.098
A41L | -0.047 ± 0.077

Variant | abundance fitness
A31E | -0.093 ± 0.068
A31T | 0.025 ± 0.064
A31R | -0.486 ± 0.06
Q1A | -0.144 ± 0.16
Q1T | 0.106 ± 0.11
Q1H | -0.504 ± 0.32
Q1C | -0.019 ± 0.14
Y38Q | -0.072 ± 0.086
Y38W | -0.239 ± 0.11
Y38A | -0.057 ± 0.067
Y38E | -0.064 ± 0.083
D9V | -0.201 ± 0.062
D9E | -0.171 ± 0.085
D9R | -0.378 ± 0.073
D9W | -0.289 ± 0.079
E33A | -0.121 ± 0.05
T20R | -0.859 ± 0.063
T20E | -0.825 ± 0.12
T20K | -0.755 ± 0.24
T20H | -0.299 ± 0.15
T20V | 0.04 ± 0.038
G22M | -0.163 ± 0.052
G22D | -0.033 ± 0.064
G17T | -0.411 ± 0.054

Variant | abundance fitness
T3R | -0.083 ± 0.064
T3S | -0.059 ± 0.079
K63E | 0.009 ± 0.19
K63P | -0.949 ± 0.23
K63A | -0.141 ± 0.084
K63C | -0.143 ± 0.087
K63Y | -0.704 ± 0.2
C56L | -0.498 ± 0.12
C14F | -0.1 ± 0.11
C14V | -0.231 ± 0.079
C14E | 0.002 ± 0.081
C14W | -0.419 ± 0.16
C14T | 0.099 ± 0.11
C14L | 0 ± 0.056
C14S | -0.105 ± 0.069
C24D | -0.695 ± 0.064
C24T | -0.902 ± 0.06
C24F | -1.06 ± 0.099
C24K | -0.957 ± 0.079
C24G | -0.907 ± 0.04
D45N | 0.009 ± 0.085
D45Y | -0.176 ± 0.25
D45I | -0.07 ± 0.1
